Experimental data from publication PMC4528139.
Several values for one entry are separate records, joined by “and”; a condition that tells them apart may be missing. Equal entries are not always repeated.

Key:
[1] = target: 40007 (clade CRF01 A-E) gp140 trimer, Strep-tag approach (HIV-1 strain 40007); experiment: not stated; trimers purified by the Strep-tag approach; manuscript in preparation
[2] = target: Strep-tagged JRFL CP664-gp140 (cleaved trimer) (HIV-1 strain JRFL); experiment: SEC + native gel or EMSA; Strep-Tactin-purified gp140 on Superdex 200 in 25 mM Tris-HCl pH 8, 150 mM NaCl; fractions on blue native PAGE; 293F- or GnTI−-produced
[3] = target: Strep-tagged JRFL CP664-gp140 (cleaved trimer) (HIV-1 strain JRFL); experiment: negative stain EM
[4] = target: Strep-tagged JRFL CP664-gp140 (cleaved trimer) (HIV-1 strain JRFL); experiment: native gel or EMSA
[5] = target: JRFL foldon-gp140 (uncleaved foldon trimer) (HIV-1 strain JRFL | bacteriophage T4); experiment: SEC + native gel or EMSA
[6] = target: Strep-tagged BG505 CR gp140 (uncleaved) (HIV-1 strain BG505); experiment: native gel or EMSA
[7] = target: SF162 (clade B) gp140 trimer, Strep-tag approach (HIV-1 strain SF162); experiment: not stated; trimers purified by the Strep-tag approach; manuscript in preparation
[8] = target: Strep-tagged JRFL CR664-gp140 (uncleaved) (HIV-1 strain JRFL); experiment: SEC + native gel or EMSA; Strep-Tactin-purified gp140 on Superdex 200 in 25 mM Tris-HCl pH 8, 150 mM NaCl; fractions on blue native PAGE; 293F- or GnTI−-produced
[9] = target: Strep-tagged JRFL CR664-gp140 (uncleaved) (HIV-1 strain JRFL); experiment: negative stain EM
[10] = target: Strep-tagged JRFL CR664-gp140 (uncleaved) (HIV-1 strain JRFL); experiment: native gel or EMSA

Work on “40007 (clade CRF01 A-E) gp140 trimer, Strep-tag approach (natural protein)” yielded a stoichiometry N [1] of 3.

“Strep-tagged JRFL CP664-gp140 (cleaved trimer) (complex)” was tested, and the fold, fraction of gp140 recovered as trimers against uncleaved gp140 [2] was 3 fold and 5 fold, the stoichiometry N [2] was 3 and the stoichiometry N [3] was 3. It also gave a stoichiometry N [4] of 3.

For “JRFL foldon-gp140 (uncleaved foldon trimer)”, the stoichiometry N [5] was 3.

“Strep-tagged BG505 CR gp140 (uncleaved) (natural protein)” showed a stoichiometry N [6] of 3.

For “SF162 (clade B) gp140 trimer, Strep-tag approach (natural protein)”, the stoichiometry N [7] was 3.

“Strep-tagged JRFL CR664-gp140 (uncleaved) (natural protein)” was tested, and the stoichiometry N [8] was 3, the stoichiometry N [9] was 3 and the stoichiometry N [10] was 2 and 3.
